Tests used:
[1] = biological target: T1, FUBP1-interacting repressor (FIR) (human, UniProt Q9UHX1-2 1-542); experiment: ITC; second step of two-step fit, 30°C, pH 7.2
T1 chain: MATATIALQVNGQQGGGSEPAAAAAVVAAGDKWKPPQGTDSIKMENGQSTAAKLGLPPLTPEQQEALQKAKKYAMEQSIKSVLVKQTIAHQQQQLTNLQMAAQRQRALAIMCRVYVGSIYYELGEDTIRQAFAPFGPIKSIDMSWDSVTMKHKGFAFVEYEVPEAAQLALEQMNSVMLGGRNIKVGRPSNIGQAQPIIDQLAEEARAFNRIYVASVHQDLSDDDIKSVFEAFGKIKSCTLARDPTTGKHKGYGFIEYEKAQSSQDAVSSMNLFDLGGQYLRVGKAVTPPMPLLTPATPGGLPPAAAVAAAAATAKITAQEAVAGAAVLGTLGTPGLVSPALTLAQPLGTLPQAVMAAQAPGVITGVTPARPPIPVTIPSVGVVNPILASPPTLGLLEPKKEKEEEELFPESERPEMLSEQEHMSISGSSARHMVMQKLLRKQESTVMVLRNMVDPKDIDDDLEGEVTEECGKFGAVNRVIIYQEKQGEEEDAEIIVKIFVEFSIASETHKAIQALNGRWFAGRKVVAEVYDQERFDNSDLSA

[2] = biological target: T1, FUBP1-interacting repressor (FIR); experiment: ITC; first step of two-step fit, 30°C, pH 7.2
[3] = biological target: T2, FUBP1-interacting repressor (FIR) (human, UniProt Q9UHX1-2 1-542); experiment: ITC; MicroCal VP-ITC, 30 °C, 50 mM phosphate buffer pH 7.2; cell: 4 μM wild FIR or 14.5 μM FIR∆exon2; syringe: 44 or 145 μM TFIIH p62 PH domain; 25 injections of 10 μL; conditions: both partners purified
T2 construct: also called FIR wild; wild FIR
T2 sequence (looked up): T1 chain

- Ka [1]: 2.3e+06 M⁻¹
- Ka [2]: 1.9e+07 M⁻¹
- Ka [3]: 2.34e+07 M⁻¹
B1: TFIIH p62 PH domain (domain or fragment, UniProt P32780 1-108, looked up)
chain: MATSSEEVLLIVKKVRQKKQDGALYLMAERIAWAPEGKDRFTISHMYADIKCQKISPEGKAKIQLQLVLHAGDTTNFHFSNESTAVKERDAVKDLLQQLLPKFKRKAN
notes: pleckstrin homology (PH) domain of the P62 subunit of transcription factor IIH; also called P62 of TFIIH; P62 subunit of TFIIH

Reference: paper PMC10743661, “The Link of mRNA and rRNA Transcription by PUF60/FIR through TFIIH/P62 as a Novel Therapeutic Target for Cancer” (International Journal of Molecular Sciences, 2023)
